Assay results taken from US10899824B2 (Polichem S.A., priority 2016, dated 2021).

Columns and labels:
[1] = system: HSV-1; test: Syncytia formation evaluation (qualitative neutralization assay); assay type: cell-based, HSV-1 (HF strain)
Experimental: (§1) Purified Fabs (Ex2(G2), Ex2B(G2), Ex2C(G2), Ex2H(G2) and Ex2I (G2) were pre-incubated (10 μg/mL) with a standard amount of HSV-1 or HSV-2 isolates. Appropriate experimental controls were also included. The different “infection-mix” was used to infect Vero E6 cells (adsorption 2 hours before change of medium).
(§2) After twenty hours, the cell monolayers were Fixed and Permeabilized with crystal violet containing solution allowing first a qualitative evaluation of Fabs biological activities against both HSV-1 and HSV-2 isolates (procedure described in the Materials and Methods section). The reduction of syncytia formation was assessed by bright field phase contrast optical microscopy. As already stated, this assay allowed a first evaluation of Fab potencies.
(§3) The qualitative assays (described in the Materials and Methods section) were performed on IgG1 format of selected anti-HSV-1 and 2 Fabs (FIG. 11).
(§4) In order to evaluate the potency of Fab Ex2, a qualitative assay using different dilutions was performed. Three different concentrations of Ex2 (10 μg/ml, 5 μg/ml and 2.5 μg/ml) were tested against HSV-1 and 2 through the syncytia formation assay.
(§5) Syncytia Formation Evaluation Through Bright Field Phase Contrast Optical Microscope Protocol: […]
(§6) The reduction of syncytia formation was assessed by bright field phase contrast optical microscope. […]

[2] = system: HSV-2; test: as above; assay type: cell-based, HSV-2 (MS strain)
Experimental: as §1, §2, §3, §4, §5, §6

[3] = system: HSV-1; test: Quantitative neutralizing activity through indirect immunofluorescence (IIF), InCellAnalyzer count; assay type: cell-based, HSV-1 (HF strain); details: IgG1 Fab; Vero E6 cells
Experimental: (§7) The neutralizing activity of Fabs Ex2, Ex2B, Ex2C, Ex2H and Ex2I was evaluated using the InCellAnalyzer automated count system in order to calculate the IC50s of all Fab and obtain a dose-response curve. Several dilutions of the different Fabs were used in order to obtain the dose-response curve. In all sets of neutralization experiments several Fab dilutions were performed since only using a biological compound limit dilution was possible to obtain the exact amount of Fab able to inhibit viral infection.
(§8) Moreover, the same “dose-response” curve allowed the calculation of Fab IC50 which effectively depicts the in vitro Fab potency. The IC50 is the Fab concentration able to reduce by 50% the cell damage due to the infection of cell monolayer with a standard amount of virus (HSV-1 and HSV-2).
(§9) Quantitative Neutralizing Activity Evaluation Through Indirect Immunofluorescence (IIF) Assay Protocol: […]
(§10) Neutralization activity was then assessed by counting the immunofluorescence infection foci through InCellAnalyzer system.
(§11) The number of infection foci in the cell monolayer infected with viruses treated with the different Fab preparations was compared with the foci counted for the virus control (same virus amount)
(§12) The percentage of neutralization was then evaluated and a standard deviation from the mean was calculated as well (the experiment was performed in triplicate)

[4] = system: HSV-2; test: as above; assay type: cell-based, HSV-2 (MS strain); details: IgG1 Fab; Vero E6 cells
Experimental: as §7, §8, §9, §10, §11, §12

[5] = system: HSV-1; test: Plaque reduction assay; assay type: cell-based, HSV-1 (HF strain); details: 1 μg/mL
Experimental: (§13) Dose-response quantitative assay: the capability of Fab Ex2 to inhibit HSV infection was assessed by evaluating the presence of lysis plaques on cell monolayer due to HSV infection in the presence or in the absence of Fab Ex2. To confirm the IIF neutralization data, a plaque reduction assay was performed as quantitative evaluation.
(§14) Quantitative Neutralizing Activity Evaluation Through Plaque Reduction Assay Protocol:
(§15) 7×10^5 Vero cells/well were seeded in a 6-wells plate and grown in the appropriate complete medium supplemented with 10% FCS. Experiment was performed with cells at 100% confluence.
(§16) HSV-1 and HSV-2 viral stocks dilution (−5 and −4 respectively) were pre-incubated with purified Fab of interest at different concentrations (5, 2.5 and 1 μg/mL) in a final volume of 800 μL of complete DMEM, for 1 h at 37° C. and 5% CO2.
(§17) Experimental controls were added as well.
(§18) After washing the cells with a PBS 1× solution, viral solutions were added to the monolayers and incubated for 2 h at 37° C. and 5% CO2 for adsorption. […]
(§19) Neutralization activity was then assessed by counting the plaque forming units (PFU). In particular, the number of PFU in the cell monolayer infected with Fab-treated viruses was compared with the PFU counted for the virus control (same virus amount).

[6] = system: HSV-2; test: Plaque reduction assay; assay type: cell-based, HSV-2 (MS strain); details: due to very high potency
Experimental: as §13, §14, §15, §16, §17, §18, §19

[7] = system: HSV-1; test: Cell-to-cell infection inhibition (plaque areas, post-adsorption); assay type: cell-based; details: Fabs 50 ug/mL, IgGs 25 ug/mL
Experimental: (§20) Post post-adsorption assays have been performed in order to evaluate the contribution of IgGA in inhibiting “cell-to-cell” infection by measuring the plaque areas resulting from infected cells treated or untreated with FabA or IgGA.
(§21) Fabs tested in post-adsorption cell-to-cell infection inhibition assays have also been preliminary used at a concentration of 50 and 200 ug/mL against HSV-1 and HSV-2 tested isolates respectively*.
(§22) IgGs tested in post-adsorption “cell-to-cell” infection inhibition assays have also been preliminary used at a concentration of 25 and 100 ug/mL against HSV-1 and HSV-2 tested isolates respectively*.

[8] = system: HSV-2; test: as above; assay type: cell-based; details: Fabs 200 ug/mL, IgGs 100 ug/mL
Experimental: as §20, §21, §22

B1: Ex2: human monoclonal Fab, VH SEQ ID NO.1 and VL SEQ ID NO.2, IgG2 Fab converted to IgG1 (antibody, listed as Homo sapiens, V domains shown)
VH: LESGGGVVQPGRSLRLSCAASGFTFTTFAMHWVRQAPGKGLEWLAFISYDGSNKYYADSVKGRFTISRDNSKNTLYLQMNSLRAEDTSIYYCAREVWNYADYWGQGALVTVSS
VL: ELTQSPGTLSSSPGHRATLSCKASAPLGSNHMAWYQQKPGQAPRLLIYGASTRATGVPARFTGSGSGTDFTLTISSLQPEDFATYYCQQANSFPRTFGQGTKVEIK
modifications: IgG1 constant regions
Question: How did the “inhibition of cellular disruption and syncytia formation, HSV-1” value ([1]; 10 μg/ml, 5 μg/ml and 2.5 μg/ml, dose-dependent) turn out when B1 was run?
Answer: strongly inhibit

Question: What about the “neutralizing potency of IgG1 format compared to IgG2 format, HSV-1” value ([1]; IgG1 converted Fabs) of the same molecule?
Answer: increased potency

Question: And the “inhibition of HSV-2 infection (syncytia formation assay)” value ([2]; 10 μg/ml, 5 μg/ml and 2.5 μg/ml, very low concentrations)?
Answer: completely inhibit

Question: And the “neutralizing potency of IgG1 format compared to IgG2 format, HSV-2” value ([2]; IgG1 converted Fabs)?
Answer: increased potency

Question: And the “HSV-1 (IC50 μg/mL ± CI 95%)” value [3]?
Answer: 0.7 (0.44 ± 1.21) μg/mL

Question: What about the “HSV-2 (IC50 μg/mL ± CI 95%)” value [4] of the same molecule?
Answer: 0.2 (0.19 ± 0.23) μg/mL

Question: And the “HSV-1 plaque formation measured as PFU” value [5]?
Answer: inhibited

Question: What about the “dose-response effect in HSV-2 plaque neutralization assay” value [6] of the same molecule?
Answer: a dose-response effect could not be measured

Question: And the “inhibition of plaque areas (cell-to-cell infection), HSV-1” value [7]?
Answer: inhibits

Question: What about the “inhibition of plaque areas (cell-to-cell infection), HSV-2” value [8] of the same molecule?
Answer: inhibits
